Data reported in patent US20250296994A1 (SYSMEX, published 2025).

Columns and labels:
human Crtac1A = biological target: T1, human Crtac1A (human, UniProt Q9NQ79 28-661); experiment: immunoblotting (Wes) of denatured recombinant Crtac1A/1B and human CSF
T1 construct: Recombinant protein (IB control sample) or native protein in human CSF and serum; also called rCrtac1A
T1 sequence: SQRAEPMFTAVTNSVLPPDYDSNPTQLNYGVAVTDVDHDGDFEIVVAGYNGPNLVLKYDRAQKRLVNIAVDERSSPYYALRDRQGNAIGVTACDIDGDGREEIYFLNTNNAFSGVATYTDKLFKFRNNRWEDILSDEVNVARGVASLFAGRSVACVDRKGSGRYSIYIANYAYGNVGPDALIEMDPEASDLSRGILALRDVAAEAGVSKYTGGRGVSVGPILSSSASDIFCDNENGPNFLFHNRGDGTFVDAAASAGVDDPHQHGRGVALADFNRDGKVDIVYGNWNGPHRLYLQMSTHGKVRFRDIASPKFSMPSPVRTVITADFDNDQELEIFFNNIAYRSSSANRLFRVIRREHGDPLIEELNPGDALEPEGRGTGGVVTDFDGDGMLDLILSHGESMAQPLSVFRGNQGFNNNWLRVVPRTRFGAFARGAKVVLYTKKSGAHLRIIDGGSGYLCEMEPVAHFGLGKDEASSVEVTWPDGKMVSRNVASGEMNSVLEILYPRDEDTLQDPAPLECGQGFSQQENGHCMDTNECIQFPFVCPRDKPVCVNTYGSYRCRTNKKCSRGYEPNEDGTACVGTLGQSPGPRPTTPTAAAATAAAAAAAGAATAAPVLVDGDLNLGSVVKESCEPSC
Experimental: Study of specificity of monoclonal antibody to antigen (1) Immunoblotting (IB) analysis using a monoclonal antibody purified from the culture supernatant of hybridomas of clones 1B4 and 15C2 was performed on human cerebrospinal fluid (2 specimens: referred to as CSF1 and CSF2) by simple Western (registered trademark) system Wes (registered trademark) (Protein Simple Corporation). In the analysis by Wes, capillary electrophoresis and IB of the sample were performed fully automatically by the apparatus. Specific operations such as preparation of an electrophoresis sample, preparation of a diluent of a primary antibody, and analysis by an apparatus were performed according to the protocol attached to Wes. As a control sample, recombinant proteins of Crtac1A and Crtac1B were used. These recombinant proteins were prepared in the same manner as in Example 1. For comparison, analysis using an anti-rat LOTUS antibody (ITM, 45-12C) as a primary antibody was also performed.
In FIG. 5, “conventional antibody” represents the anti-rat LOTUS antibody, and “rCrtac1A/1B” represents recombinant proteins of Crtac1A and Crtac1B. […] However, when monoclonal antibodies derived from clones 1B4 and 15C2 were used, a band was not detected. In the electrophoresis sample, the protein in the sample was denatured by addition of a sample buffer and heating.

[1] = biological target: T2, antigen peptide P3 (BSA conjugate in the primary screening) (human, NH2-PEG6 at the N-terminus; C-terminal amide; disulfide bond between the two cysteine residues; carrier protein (BSA in the screening ELISA, KLH for immunization) conjugated to the N-terminal amino …); experiment: primary screening ELISA, BSA-conjugated antigen peptide immobilized, hybridoma culture supernatant
T2 peptide: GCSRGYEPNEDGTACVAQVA
Experimental: In order to select hybridomas producing monoclonal antibodies reactive to the antigen peptide, the culture supernatant of each hybridoma was measured by ELISA. In the primary screening, as a positive antigen, a peptide to which BSA was conjugated was used as a carrier protein for each of the antigen peptides P1, P2 and P3. Specific operations were as follows.
The positive antigen was diluted with PBS to a concentration of 1 μg/mL. Positive antigen (50 μL) was added to each well of a 96 well plate. Then, the plate was incubated at 4° C. for 17 hours, and a positive antigen was immobilized in the well to obtain an antigen immobilized plate. Each well was washed three times with PBS (250 μL). To each well was added a blocking buffer (250 μL, 0.5% skim milk/PBS) and blocked at room temperature for 1 hour. Culture supernatant (50 μL) of each hybridoma was added to each well, and the cells were incubated at room temperature for 1 hour. Each well was washed three times with PBS (250 μL). An ALP-labeled anti-mouse IgG goat antibody (SBI, product number 1030-04) was diluted 1:2,500 with PBS. A solution (50 μL) of this labeled antibody was added to each well, and the well was incubated at room temperature for 30 minutes. Each well was washed three times with PBS (250 μL). […] The plate was set in a microplate reader, and the emission intensity was measured for each well.

B1: 15C2 antibody (monoclonal antibody derived from the hybridoma of clone 15C2) (antibody, mouse IgG1, kappa, V domains shown)
VH: EVQLQQFGAELVKPGASVKISCKASGYTFTDYNMDWVKQSHGKSLEWIGDINPNYDSSSYNQKFKGKATLTVDKSSSTAYMELRSLTSEDTAVYYCTRSGGTYWGQGTLVTVSA
VL: DIQMNQSPSSLSASLGDTITITCHASQNINVWLSWYQQKPGNIPKLLIYKASNLHTGVPSRFSGSGSGTGFSLTISSLQPEDIATYYCQQAQSYPRTFGGGTKLEIKR
notes: Mouse IgG1; Used as hybridoma culture supernatant (ELISA) or purified from supernatant (IB, IP); also called anti-Crtac1B antibody; antibody of the present embodiment
binding result (human Crtac1A): no binding
binding result [1]: binds
